In publication PMC12524728, “Integrating Structural Bioinformatics and Functional Mechanisms of Sesquiterpene Synthases CARS and CADS in Lavandula angustifolia (Lavender)” (International Journal of Molecular Sciences, 2025):

Legend:
Experiment in all cases: enzyme kinetics, Hanes-Woolf plot
Type in all cases: biochemical, Lavandula angustifolia
Conditions in all cases: Mg2+-dependent enzyme; assay conditions only in supplement
[1] = tested on: T1, CC(C)=CCC/C(C)=C/CC/C(C)=C/CO[P@@](=O)(O)OP(=O)(O)O
T1 construct: C-terminal deletion of residues 522-548; host and tags only in supplement
Description: enzyme kinetics, Hanes-Woolf plot on ∆522–548 (CARS)

[2] = tested on: T2, CC(C)=CCC/C(C)=C/CC/C(C)=C/CO[P@@](=O)(O)OP(=O)(O)O
T2 construct: C-terminal deletion of residues 529-555; host and tags only in supplement
Description: enzyme kinetics, Hanes-Woolf plot on ∆529–555 (CADS)

[3] = substrate: CC(C)=CCC/C(C)=C/CC/C(C)=C/CO[P@@](=O)(O)OP(=O)(O)O
Description: enzyme kinetics, Hanes-Woolf plot on CADS (wild-type, full-length)

[4] = substrate: CC(C)=CCC/C(C)=C/CC/C(C)=C/CO[P@@](=O)(O)OP(=O)(O)O; remark: listed apart in the source
Description: enzyme kinetics, Hanes-Woolf plot on ∆1–226 (CARS)

[5] = substrate: CC(C)=CCC/C(C)=C/CC/C(C)=C/CO[P@@](=O)(O)OP(=O)(O)O; remark: listed apart in the source
Description: enzyme kinetics, Hanes-Woolf plot on ∆1–228 (CADS)

[6] = substrate: CC(C)=CCC/C(C)=C/CC/C(C)=C/CO[P@@](=O)(O)OP(=O)(O)O; remark: listed apart in the source
Description: enzyme kinetics, Hanes-Woolf plot on CARS (wild-type, full-length)

∆522–548 (CARS) (Lavandula angustifolia; DEL522-548)
Km [1]: 4.96 ± 0.17 µM
kcat [1]: 0.391 ± 0.0115 s⁻¹

∆529–555 (CADS) (Lavandula angustifolia; DEL529-555)
Km [2]: 7.13 ± 0.29 µM
kcat [2]: 0.44 ± 0.00883 s⁻¹

B1: CADS (wild-type, full-length) (Lavandula angustifolia) (protein)
chain: MATSAVVNCLGGVRPHTIRYEPNMWTHTFSNFSIDEQVQGEYAEEIEALKQEVRSMLTAATTCKEQLILIDTLERLGLSYHFETEIEQKLKEIILHINREEDASGGDCDLYTTSLGFRVIRQHQYHISCGVFEKYLDKDGKFEESLSSDTEGILSLYEAAHVRFRDETLLQEAARFSRHHLKGMEEVLESPLREKVQRALQHPLHRDIPIFYAHFFISNIYQKDDSRNELLLKLAKSNFMFLQNLYKEELSQLSRWWNKFDLKSKLPYARDRLVEAYIWGVGYHYEPRYAYVRRGLVIGIQIIAIMDDTYDNYATVDEAQLFTEMFERWSMDGIDGVPDYLKIAYHFVVSAFEDYERDAGKLGKQFAAPYFKQTIQQLARAYNQELKWVMGTQSMPSFQDYAKNSEITSCIYIMSASVFHGLESVTQETIDWLKNEPNFAVSTGMIGRYWDDIGSHERESRGGKMLTAVGCYMKQYGVSKKEAVRKFREQVEDLWKDVNKGYTAMTCMPRETAVLFLNYARMCDASYTENNDDGYTDPDFSKRKISALFLDPLVF
notes: full-length, codon-optimised gene; monomer by DLS; host and tags only in supplement
Km [3]: 15.86 ± 0.21 µM
kcat [3]: 0.0993 ± 0.00383 s⁻¹

B2: ∆1–226 (CARS) (Lavandula angustifolia) (protein)
chain: ETLLNFAKLDFNLVQKIHQKELNQITRWWKELDFGKNLPFARDRPVECYFWIVGVYFEPRYGIARTLLTKIIYLASVLDDIYDVYGTLAELTIFTQIIRRWDSDAMDQLPPYMRIYCKALFDVYVEMEEEMGKIRKSYAVEYAKKEMKRLAEMYFQEAQWAFSKYKPTMKEYLKVALISSGYMMMTINSLTTIEDLITEEEFNWILSEPRILRASLTITRLMDDLAGYGTEGKMSAVHYYMAENGVSEGEAFKEVSGIIKSAWKDVNAECVEPRAASTTILRCVVDFTRVIVLLYSDEDAYGNSQTKTKDLIKSVLVDPLII
notes: N-terminal deletion of residues 1-226; host and tags only in supplement
Km [4]: 9.57 ± 0.24 µM
kcat [4]: 0.24 ± 0.00533 s⁻¹

B3: ∆1–228 (CADS) (Lavandula angustifolia) (protein)
chain: ELLLKLAKSNFMFLQNLYKEELSQLSRWWNKFDLKSKLPYARDRLVEAYIWGVGYHYEPRYAYVRRGLVIGIQIIAIMDDTYDNYATVDEAQLFTEMFERWSMDGIDGVPDYLKIAYHFVVSAFEDYERDAGKLGKQFAAPYFKQTIQQLARAYNQELKWVMGTQSMPSFQDYAKNSEITSCIYIMSASVFHGLESVTQETIDWLKNEPNFAVSTGMIGRYWDDIGSHERESRGGKMLTAVGCYMKQYGVSKKEAVRKFREQVEDLWKDVNKGYTAMTCMPRETAVLFLNYARMCDASYTENNDDGYTDPDFSKRKISALFLDPLVF
notes: N-terminal deletion of residues 1-228; host and tags only in supplement
Km [5]: 11.13 ± 0.37 µM
kcat [5]: 0.2937 ± 0.00233 s⁻¹

B4: CARS (wild-type, full-length) (Lavandula angustifolia) (protein)
chain: MAAPISTNNVCSDDARPVTYHPNVWSDYFLRYTSELTEISVAKKEEHERQKEAIRNLLLQTRDDSTLKLELVDAIQRLGIGYHFEEEIHNSLRNIYDTNPIYNAEDDNLRVAALRFRLIRQQGFPAPCDVFRKFVDEEGEFKSWVSNDVEGLLNLYEASNFAVHGEEILEKALEFCSLRLEFLTQGMTNSLSMRVKEALKIPISKTLTRLGARKFMSMYQEDESHNETLLNFAKLDFNLVQKIHQKELNQITRWWKELDFGKNLPFARDRPVECYFWIVGVYFEPRYGIARTLLTKIIYLASVLDDIYDVYGTLAELTIFTQIIRRWDSDAMDQLPPYMRIYCKALFDVYVEMEEEMGKIRKSYAVEYAKKEMKRLAEMYFQEAQWAFSKYKPTMKEYLKVALISSGYMMMTINSLTTIEDLITEEEFNWILSEPRILRASLTITRLMDDLAGYGTEGKMSAVHYYMAENGVSEGEAFKEVSGIIKSAWKDVNAECVEPRAASTTILRCVVDFTRVIVLLYSDEDAYGNSQTKTKDLIKSVLVDPLII
notes: as for B1
Km [6]: 11.34 ± 0.13 µM
kcat [6]: 0.104 ± 0.00183 s⁻¹
